{"source": "patent US10429300B2", "about": "“Surface plasmon resonance approach to monitor protein-ligand interactions” (The Johns Hopkins University, priority 2015, dated 2019)", "key": {"[1]": {"molecular_target": "T1, rNav1.2a VSD IV paddle peptide (R1629A/L1630A, SEQ ID NO: 4) (Rattus norvegicus, UniProt P04775, L1630A/R1629A)", "T1 construct": "purchased ProteoGenix; host or cells: chemical synthesis (Fmoc solid phase)", "T1 sequence (P04775 1605-1636 R1629A/L1630A)": "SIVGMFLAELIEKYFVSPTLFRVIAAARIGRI", "assay": "SPR on immobilized rNav1.2a VSD IV paddle peptide", "assay_type": "binding", "conditions": "100 nM toxin; 500 fmol peptide"}, "[2]": {"molecular_target": "T2, rNav1.2a VSD II paddle peptide (V843A, SEQ ID NO: 2) (Rattus norvegicus, UniProt P04775, V843A)", "T2 construct": "purchased ProteoGenix; host or cells: chemical synthesis (Fmoc solid phase)", "T2 sequence (P04775 832-856 V843A)": "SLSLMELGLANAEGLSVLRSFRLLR", "assay": "SPR on immobilized rNav1.2a VSD II paddle peptide", "assay_type": "binding", "conditions": "100 nM toxin; 500 fmol peptide", "method": "SPR experiments were performed at 25° C. on a Biacore™ T200 instrument (GE Healthcare) using 150 mM NaCl, 3 mM EDTA, 0.005% surfactant P20, and 10 mM HEPES-NaOH, pH 7.4, for the coupling protocol or 50 mM phosphate, pH 7.2, as running buffer. Neutravidin (Thermo Fisher Scientific) was immobilized on CM5 sensor chips (GE Healthcare) using an amine coupling chemistry. All chemicals were obtained from Sigma-Aldrich. […] In all SPR experiments, nonspecific binding obtained in the control flow cell was subtracted from the signal obtained in the experimental flow cell. For qualitative binding analysis, toxins (100 nM in running buffer containing 0.1% BSA) were injected at a flow rate of 20 μl/min over 2 min. […] In between injections, the surface of the sensor chip was regenerated by injecting 1 M NaCl (15 s at 30 l/min). The bulk signal caused by refractive index differences between the flow buffer and the buffer containing the analyte was systematically excluded from the data-fitting process. It is worth noting that isolating a paddle motif (ligand) can induce conformational changes that can affect toxin (analyte) efficacy. […] Sensorgrams can reveal such ligand heterogeneity by displaying biphasic dissociation curves that cannot be fitted with the frequently used Langmuir model, which assumes a 1:1 stoichiometry of analyte to ligand. To account for a possible heterogeneity of surface sites, we calculated the rate constants and affinity equilibrium dissociation constants (KD) for AaHII by a fit to a heterogeneous ligand model incorporated into the Biacore T200 Evaluation™ software (v1.0). This model assumes the presence of two sites on the ligand that can bind analyte and can be described by these equations in which A represents the analyte and B1/B2 represents the heterogeneous ligand:\n(A) Shown are the CD spectra of the rNav1.2a VSD II and IV paddle peptides used in this paper. […] (B) Representative association and dissociation kinetic curves obtained using SPR after the application of varying concentrations of AaHII (15-2,000 nM) over a sensor chip to which 50 fmol of the rNav1.2a VSD IV paddle peptide was linked. Toxin was applied after obtaining a steady baseline. Colored traces represent toxin binding obtained after subtraction of the signal from the control flow cell. […] Toxin concentrations are indicated on the right in a shade of gray corresponding to the sensorgram. (C) Representative SPR traces after the application of 100 nM KTX, AaHI, AaHII, LqqV, BomIV, TsVII, and CssIV over a sensor chip to which the rNav1.2a VSD II (left) or IV (right) paddle peptide (500 fmol) was linked. Toxin was applied after obtaining a steady baseline. (D) Binding capacities of 100 nM α-scorpion toxins AaHI, AaHII, LqqV, the α-like scorpion toxin BomIV, and the β-scorpion toxins TsVII and CssIV to the VSD II and IV paddle motifs using SPR (error bars represent±SEM). Y-axis represents the maximum RUs obtained after toxin application.\nNext, the VSD IV peptide was fixed on SPR sensor chips by adding a K-linked biotin group to the C terminus, resulting in a 32-amino acid peptide altogether (SEQ ID NO: 4 which is mutated SEQ ID NO: 3 of FIG. 2A)."}, "rNav1.2a": {"tested_on": "rNav1.2a", "assay": "Two-electrode voltage-clamp, rNav1.2a expressed in Xenopus oocytes", "assay_type": "cell-based, rat", "conditions": "100 nM toxin; for effect on rNav1.2a fast inactivation: 50-ms test pulse; for fast inactivation time constant (τ) after toxin application: single-exponential fit of current decay, n=3, mean±SEM", "excerpt": "(§1) The DNA sequence of rat (r)Nav1.2a (provided by A. Goldin, University of California, Irvine, Irvine, Calif.), rKv2.1 (provided by K. J. Swartz, National Institutes of Health), and the rNav1.2a/Kv2.1 VSD II or IV chimera was confirmed by automated DNA sequencing, and cRNA was synthesized using T7 polymerase (mMessage mMachine™ kit; Life Technologies) after linearizing the DNA with appropriate restriction enzymes. Channels were expressed in Xenopus oocytes (obtained from Xenopus 1) and studied after a 1-d incubation after cRNA injection (incubated at 17° C. in 96 mM NaCl, 2 mM KCl, 5 mM HEPES, 1 mM MgCl2, 1.8 mM CaCl2, and 50 μg/ml gentamycin, pH 7.6 with NaOH) using two-electrode voltage-clamp recording techniques (OC-725C; Warner Instruments) with a 150-μl recording chamber. Data were filtered at 4 kHz and digitized at 20 kHz using pClamp™ 10 software (Molecular Devices). Microelectrode resistances were 0.5-1.5 MΩ when filled with 3 M KCl. For Kv chimera channel experiments, the external recording solution contained (mM): 50 KCl, 50 NaCl, 5 HEPES, 1 MgCl2, and 0.3 CaCl2, pH 7.6 with NaOH. For rNav1.2a experiments, the external recording solution contained (mM): 100 NaCl, 5 HEPES, 1 MgCl2, and 1.8 CaCl2, pH 7.6 with NaOH. All experiments were performed at ˜22° C. Leak and background conductances, identified by blocking the channel with agitoxin-2 (provided by K. J. Swartz), have been subtracted for all of the Kv channel currents shown. […] Voltage-activation relationships were obtained by measuring tail currents for Kv channels or steady-state currents and calculating conductance for Nav channels, and a single Boltzmann function was fitted to the data according to I/Imax=[1c+cexp(−zF(Vc−cV1/2)/RT)]^−1, where I/Imax is the normalized tail-current amplitude, z is the equivalent charge, V1/2 is the half-activation voltage, F is Faraday's constant, R is the gas constant, and T is temperature in kelvin. For all channels, voltage-activation relationships were recorded in the absence and presence of toxin. The ratio of currents (I/I0) recorded in the presence (I) and absence (I0) of toxin was calculated for voltages typically ranging from −140 to 10 cmV, depending on the construct. […] The apparent equilibrium dissociation constant (apparent KD) for Kv channels was calculated according to KD=((1/(1c−cFu^1/4))c−c1)[toxin], assuming four independent toxin-binding sites per channel. Results are given as mean±SEM unless noted otherwise. Offline data analysis was performed using Clampfit 10™ (Molecular Devices), Origin 8.0™ (OriginLab), and Excel™ (Microsoft). All chemicals were obtained from Sigma-Aldrich.\n(§2) Representative sodium currents were elicited by a 50-ms depolarization to a suitable membrane voltage (−20 to −15 mV) before (black) and after toxin addition (green) from a holding voltage of −90 mV. […] For each toxin, K^+ currents were elicited by a 300-ms depolarization to 0 mV from a holding voltage of −90 mV (tail voltage was −60 mV). […] For each toxin, K^+ currents (top) were elicited by a 300-ms depolarization near the foot of the voltage-activation curve (bottom) from a holding voltage of −90 mV."}, "[3]": {"tested_on": "rNav1.2a/Kv2.1 VSD IV paddle chimera", "sequence (P04775 1605-1636 limits assumed, change not shown)": "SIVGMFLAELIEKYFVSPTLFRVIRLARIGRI", "assay": "Two-electrode voltage-clamp, rNav1.2a/Kv2.1 VSD IV paddle chimera in Xenopus oocytes", "assay_type": "cell-based, rat", "conditions": "100 nM toxin; for depolarizing shift in midpoint (V1/2): Boltzmann fit, n=3", "excerpt": "as §1, §2"}, "WT rKv2.1": {"tested_on": "WT rKv2.1", "assay": "Two-electrode voltage-clamp, WT rKv2.1 in Xenopus oocytes", "assay_type": "cell-based, rat", "conditions": "1 μM toxin", "excerpt": "The DNA sequence of rat (r)Nav1.2a (provided by A. Goldin, University of California, Irvine, Irvine, Calif.), rKv2.1 (provided by K. J. Swartz, National Institutes of Health), and the rNav1.2a/Kv2.1 VSD II or IV chimera was confirmed by automated DNA sequencing, and cRNA was synthesized using T7 polymerase (mMessage mMachine™ kit; Life Technologies) after linearizing the DNA with appropriate restriction enzymes. Channels were expressed in Xenopus oocytes (obtained from Xenopus 1) and studied after a 1-d incubation after cRNA injection (incubated at 17° C. in 96 mM NaCl, 2 mM KCl, 5 mM HEPES, 1 mM MgCl2, 1.8 mM CaCl2, and 50 μg/ml gentamycin, pH 7.6 with NaOH) using two-electrode voltage-clamp recording techniques (OC-725C; Warner Instruments) with a 150-μl recording chamber. Data were filtered at 4 kHz and digitized at 20 kHz using pClamp™ 10 software (Molecular Devices). Microelectrode resistances were 0.5-1.5 MΩ when filled with 3 M KCl. For Kv chimera channel experiments, the external recording solution contained (mM): 50 KCl, 50 NaCl, 5 HEPES, 1 MgCl2, and 0.3 CaCl2, pH 7.6 with NaOH. For rNav1.2a experiments, the external recording solution contained (mM): 100 NaCl, 5 HEPES, 1 MgCl2, and 1.8 CaCl2, pH 7.6 with NaOH. All experiments were performed at ˜22° C. Leak and background conductances, identified by blocking the channel with agitoxin-2 (provided by K. J. Swartz), have been subtracted for all of the Kv channel currents shown. […] For all channels, voltage-activation relationships were recorded in the absence and presence of toxin. The ratio of currents (I/I0) recorded in the presence (I) and absence (I0) of toxin was calculated for voltages typically ranging from −140 to 10 cmV, depending on the construct. […] The apparent equilibrium dissociation constant (apparent KD) for Kv channels was calculated according to KD=((1/(1c−cFu^1/4))c−c1)[toxin], assuming four independent toxin-binding sites per channel. […]"}, "[4]": {"molecular_target": "rNav1.2a/Kv2.1 VSD II paddle chimera", "sequence (P04775 832-856 limits assumed, change not shown)": "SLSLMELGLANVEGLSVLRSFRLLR", "conditions": "read-out: apparent KD, paddle motif in the domain II voltage sensor; cited from earlier work"}, "[5]": {"tested_on": "rNav1.2a/Kv2.1 VSD IV paddle chimera", "conditions": "cited from earlier work"}}, "data": [{"molecule": "kaliotoxin (GVEINVKCSGSPQCLKPCKDAGMRFGKCMNRKCHCTPK) [KTX, negative control, reference compound]", "values": [{"measurement": "SPR binding to VSD IV paddle peptide", "setting": "[1]", "result": "did not bind"}, {"measurement": "SPR binding to VSD II paddle peptide", "setting": "[2]", "result": "did not bind"}]}, {"molecule": "AaHI: Nav channel-selective α-scorpion toxin from Androctonus australis hector (protein) KRDGYIVYPNNCVYHCVPPCDGLCKKNGGSSGSCSFLVPSGLACWCKDLPDNVPIKDTSRKCT", "values": [{"measurement": "effect on rNav1.2a fast inactivation", "setting": "rNav1.2a", "result": "inhibits rNav1.2a fast inactivation"}, {"measurement": "fast inactivation time constant (τ) after toxin application", "setting": "rNav1.2a", "result": "4.7±0.1"}, {"measurement": "SPR binding to VSD II paddle peptide", "setting": "[2]", "result": "a response was not obtained"}, {"measurement": "K+ current inhibition of VSD IV chimera", "setting": "[3]", "result": "robust voltage-dependent K^+ current inhibition"}, {"measurement": "depolarizing shift in midpoint (V1/2)", "setting": "[3]", "result": "~15", "unit": "mV"}, {"measurement": "effect on WT Kv2.1 K+ current", "setting": "WT rKv2.1", "result": "insensitive"}]}, {"molecule": "LqqV: Nav channel-selective α-scorpion toxin from Leiurus quinquestriatus hebraeus (protein) LKDGYIVDDKNCTFFCGRNAYCNDECKKKGGESGYCQWASPYGNACWCYKLPDRVSIKEKGRCN", "values": [{"measurement": "effect on rNav1.2a fast inactivation", "setting": "rNav1.2a", "result": "inhibits rNav1.2a fast inactivation"}, {"measurement": "fast inactivation time constant (τ) after toxin application", "setting": "rNav1.2a", "result": "4.6±0.1"}, {"measurement": "SPR binding to VSD II paddle peptide", "setting": "[2]", "result": "a response was not obtained"}, {"measurement": "K+ current inhibition of VSD IV chimera", "setting": "[3]", "result": "robust voltage-dependent K^+ current inhibition"}, {"measurement": "depolarizing shift in midpoint (V1/2)", "setting": "[3]", "result": "> 50", "unit": "mV"}, {"measurement": "effect on WT Kv2.1 K+ current", "setting": "WT rKv2.1", "result": "insensitive"}]}, {"molecule": "BomIV: α-like scorpion toxin from Buthus occitanus mardochei (protein) GRDAYIAQPENCVYECAKNSYCNDLCTKNGAKSGYCQWLGKYGNACWCEDLPDNVPIRIPGKCHF", "values": [{"measurement": "effect on rNav1.2a fast inactivation", "setting": "rNav1.2a", "result": "inhibits rNav1.2a fast inactivation"}, {"measurement": "fast inactivation time constant (τ) after toxin application", "setting": "rNav1.2a", "result": "8.5±0.1"}, {"measurement": "SPR binding to VSD II paddle peptide", "setting": "[2]", "result": "a response was not obtained"}, {"measurement": "K+ current inhibition of VSD IV chimera", "setting": "[3]", "result": "robust voltage-dependent K^+ current inhibition"}, {"measurement": "depolarizing shift in midpoint (V1/2)", "setting": "[3]", "result": "~26", "unit": "mV"}, {"measurement": "effect on WT Kv2.1 K+ current", "setting": "WT rKv2.1", "result": "insensitive"}]}, {"molecule": "TsVII: β-scorpion toxin from the Brazilian scorpion Tityus serrulatus (protein, UniProt P15226 21-81, looked up) Beta-mammal/insect toxin Ts1: KEGYLMDHEGCKLSCFIRPSGYCGRECGIKKGSSGYCAWPACYCYGLPNWVKVWDRATNKC", "values": [{"measurement": "SPR binding to VSD IV paddle peptide", "setting": "[1]", "result": "responded"}, {"measurement": "SPR binding to VSD II paddle peptide", "setting": "[2]", "result": "responded"}, {"measurement": "Kd", "setting": "[4]", "result": "112 ± 12", "unit": "nM"}, {"measurement": "binding to the VSD IV paddle, electrophysiological data from chimeras", "setting": "[5]", "result": "can also bind"}]}]}
